{"source": "paper PMC9811728", "key": {"[1]": {"target": "SC-CAT (SpyCatcher fused to the N-terminus of catalase) (Bacillus subtilis strain 168)", "assay": "SEC; elution profiles compared with molecular weight standards"}, "[2]": {"target": "SC-LOX (SpyCatcher fused to the N-terminus of lactate oxidase) (Aerococcus viridans)", "assay": "SEC; elution profiles compared with molecular weight standards"}}}
{"substance": "SC-CAT (SpyCatcher fused to the N-terminus of catalase) (enzyme)", "values": [{"measurement": "stoichiometry N", "setting": "[1]", "result": 4}]}
{"substance": "SC-LOX (SpyCatcher fused to the N-terminus of lactate oxidase) (enzyme)", "values": [{"measurement": "stoichiometry N", "setting": "[2]", "result": 4}]}
